{
  "source": "paper PMC11321297",
  "about": "(Cell Insight, 2024)",
  "biological_target": "the molecule itself",
  "assay": "cross-linking",
  "data": [
    {"protein": "His-GLUD1^K84R (enzyme) not shown", "values": [
      {"measurement": "stoichiometry N", "result": 6}
    ]}
  ]
}
